B1: D10-v5 scCAR (other)
chain: QVQLKESGPGLVAPSQTLSITCTVSGFSLTSYGVHWVRQPPGKGLEWLGVIWAGGFTNYNSALKSRLSISKDNSKSQVLLKMTSLQTDDTAMYYCARRGSSYSMDYWGQGTSVTVSSGGGGSGGGGSGGGGSEIVLSQSPAITAASLGQKVTITCSASSNVSYIHWYQQRSGTSPRPWIYEISKLASGVPVRFSGSGSGTSYSLTISSMEAEDAAIYYCQQWNYPLITFGSGTKLEIQEPKSPDKTHTCPPCPAPPVAGPSVFLFPPKPKDTLMIARTPEVTCVVVDVSHEDPEVKFNWYVDGVEVHNAKTKPREEQYNSTYRVVSVLTVLHQDWLNGKEYKCKVSNKALPAPIEKTISKAKGQPREPQVYTLPPSRDELTKNQVSLTCLVKGFYPSDIAVEWESNGQPENNYKTTPPVLDSDGSFFLYSKLTVDKSRWQQGNVFSCSVMHEALHNHYTQKSLSLSPGKIYIWAPLAGTCGVLLLSLVITLYCKRGRKKLLYIFKQPFMRPVQTTQEEDGCSCRFPEEEEGGCELRVKFSRSADAPAYQQGQNQLYNELNLGRREEYDVLDKRRGRDPEMGGKPRRKNPQEGLYNELQKDKMAEAYSEIGMKGERRRGKGHDGLYQGLSTATKDTYDALHMQALPPR
B2: D10-v1 scCAR (other)
chain: QVQLKESGPGLVAPSQTLSITCTVSGFSLTSYGVHWVRQPPGKGLEWLGVIWAGGFTNYNSALKSRLSISKDNSKSQVLLKMTSLQTDDTAMYYCARRGSSYSMDYWGQGTSVTVSSGGGGSGGGGSGGGGSEIVLSQSPAITAASLGQKVTITCSASSNVSYIHWYQQRSGTSPRPWIYEISKLASGVPVRFSGSGSGTSYSLTISSMEAEDAAIYYCQQWNYPLITFGSGTKLEIQGLAVSTISSFFPPGYQIYIWAPLAGTCGVLLLSLVITLYCKRGRKKLLYIFKQPFMRPVQTTQEEDGCSCRFPEEEEGGCELRVKFSRSADAPAYQQGQNQLYNELNLGRREEYDVLDKRRGRDPEMGGKPRRKNPQEGLYNELQKDKMAEAYSEIGMKGERRRGKGHDGLYQGLSTATKDTYDALHMQALPPR
B3: H10-v3 scCAR (other)
chain: EVKLVESGGGLVKPGGSLKLSCAASGFTFSSYAMSWVRQTPEKRLEWVASISTGASAYFPDSVKGRFTISRDNARNILYLQMSSLRSEDTAMYYCARITTSTWYFDVWGAGTTVTVSSGGGGSGGGGSGGGGSDIKMTQSPSSMYASLGERVTITCKASQDINSYLSWFQQKPGKSPKTLIYRANRLVDGVPSRFSGSGSGQDYSLTISSLEYEDMGIYYCLQYDEFPYTFGGGTKLEIKTTTPAPRPPTPAPTIASQPLSLRPEACRPAAGGAVHTRGLDFACDIYIWAPLAGTCGVLLLSLVITLYCKRGRKKLLYIFKQPFMRPVQTTQEEDGCSCRFPEEEEGGCELRVKFSRSADAPAYQQGQNQLYNELNLGRREEYDVLDKRRGRDPEMGGKPRRKNPQEGLYNELQKDKMAEAYSEIGMKGERRRGKGHDGLYQGLSTATKDTYDALHMQALPPR
B4: H10-v1 scCAR (other)
chain: EVKLVESGGGLVKPGGSLKLSCAASGFTFSSYAMSWVRQTPEKRLEWVASISTGASAYFPDSVKGRFTISRDNARNILYLQMSSLRSEDTAMYYCARITTSTWYFDVWGAGTTVTVSSGGGGSGGGGSGGGGSDIKMTQSPSSMYASLGERVTITCKASQDINSYLSWFQQKPGKSPKTLIYRANRLVDGVPSRFSGSGSGQDYSLTISSLEYEDMGIYYCLQYDEFPYTFGGGTKLEIKGLAVSTISSFFPPGYQIYIWAPLAGTCGVLLLSLVITLYCKRGRKKLLYIFKQPFMRPVQTTQEEDGCSCRFPEEEEGGCELRVKFSRSADAPAYQQGQNQLYNELNLGRREEYDVLDKRRGRDPEMGGKPRRKNPQEGLYNELQKDKMAEAYSEIGMKGERRRGKGHDGLYQGLSTATKDTYDALHMQALPPR
B5: H10-v5 scCAR (other)
chain: EVKLVESGGGLVKPGGSLKLSCAASGFTFSSYAMSWVRQTPEKRLEWVASISTGASAYFPDSVKGRFTISRDNARNILYLQMSSLRSEDTAMYYCARITTSTWYFDVWGAGTTVTVSSGGGGSGGGGSGGGGSDIKMTQSPSSMYASLGERVTITCKASQDINSYLSWFQQKPGKSPKTLIYRANRLVDGVPSRFSGSGSGQDYSLTISSLEYEDMGIYYCLQYDEFPYTFGGGTKLEIKEPKSPDKTHTCPPCPAPPVAGPSVFLFPPKPKDTLMIARTPEVTCVVVDVSHEDPEVKFNWYVDGVEVHNAKTKPREEQYNSTYRVVSVLTVLHQDWLNGKEYKCKVSNKALPAPIEKTISKAKGQPREPQVYTLPPSRDELTKNQVSLTCLVKGFYPSDIAVEWESNGQPENNYKTTPPVLDSDGSFFLYSKLTVDKSRWQQGNVFSCSVMHEALHNHYTQKSLSLSPGKIYIWAPLAGTCGVLLLSLVITLYCKRGRKKLLYIFKQPFMRPVQTTQEEDGCSCRFPEEEEGGCELRVKFSRSADAPAYQQGQNQLYNELNLGRREEYDVLDKRRGRDPEMGGKPRRKNPQEGLYNELQKDKMAEAYSEIGMKGERRRGKGHDGLYQGLSTATKDTYDALHMQALPPR
B6: D10-v3 scCAR (other)
chain: QVQLKESGPGLVAPSQTLSITCTVSGFSLTSYGVHWVRQPPGKGLEWLGVIWAGGFTNYNSALKSRLSISKDNSKSQVLLKMTSLQTDDTAMYYCARRGSSYSMDYWGQGTSVTVSSGGGGSGGGGSGGGGSEIVLSQSPAITAASLGQKVTITCSASSNVSYIHWYQQRSGTSPRPWIYEISKLASGVPVRFSGSGSGTSYSLTISSMEAEDAAIYYCQQWNYPLITFGSGTKLEIQTTTPAPRPPTPAPTIASQPLSLRPEACRPAAGGAVHTRGLDFACDIYIWAPLAGTCGVLLLSLVITLYCKRGRKKLLYIFKQPFMRPVQTTQEEDGCSCRFPEEEEGGCELRVKFSRSADAPAYQQGQNQLYNELNLGRREEYDVLDKRRGRDPEMGGKPRRKNPQEGLYNELQKDKMAEAYSEIGMKGERRRGKGHDGLYQGLSTATKDTYDALHMQALPPR

Tyrosine-protein kinase transmembrane receptor ROR1, sequence (Q01973 30-937): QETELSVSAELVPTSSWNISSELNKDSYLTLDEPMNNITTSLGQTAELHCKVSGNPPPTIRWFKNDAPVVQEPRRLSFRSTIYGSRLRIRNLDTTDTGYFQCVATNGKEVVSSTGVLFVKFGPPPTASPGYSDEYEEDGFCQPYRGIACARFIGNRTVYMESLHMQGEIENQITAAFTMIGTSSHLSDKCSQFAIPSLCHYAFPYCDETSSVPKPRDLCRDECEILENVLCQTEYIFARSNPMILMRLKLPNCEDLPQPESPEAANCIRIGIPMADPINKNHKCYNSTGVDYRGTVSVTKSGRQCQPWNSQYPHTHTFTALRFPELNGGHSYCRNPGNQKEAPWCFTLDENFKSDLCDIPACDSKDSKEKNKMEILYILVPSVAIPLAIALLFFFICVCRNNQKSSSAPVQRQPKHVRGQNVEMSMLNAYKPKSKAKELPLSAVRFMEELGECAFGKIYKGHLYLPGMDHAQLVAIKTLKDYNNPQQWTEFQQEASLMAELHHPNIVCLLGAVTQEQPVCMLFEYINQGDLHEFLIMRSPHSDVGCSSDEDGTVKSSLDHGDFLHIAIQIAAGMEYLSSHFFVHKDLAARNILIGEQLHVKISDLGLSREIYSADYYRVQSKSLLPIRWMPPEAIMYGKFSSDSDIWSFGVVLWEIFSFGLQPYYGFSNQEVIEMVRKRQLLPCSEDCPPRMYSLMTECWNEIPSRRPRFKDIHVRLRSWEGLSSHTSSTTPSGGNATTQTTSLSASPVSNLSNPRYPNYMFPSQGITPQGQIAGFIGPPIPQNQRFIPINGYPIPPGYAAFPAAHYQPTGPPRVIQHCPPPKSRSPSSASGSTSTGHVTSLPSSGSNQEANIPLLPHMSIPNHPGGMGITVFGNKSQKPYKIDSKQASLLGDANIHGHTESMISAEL

This assay has as its target Tyrosine-protein kinase transmembrane receptor ROR1 (human, UniProt Q01973 30-937). In words: cell-based or functional assay.
As to B1, the “cytotoxic activity of scCAR-modified T cells, specific lysis of PC-3 cells” value (“cytotoxic activity” for short) is over 20%; the “degranulation of scCAR-modified T cells (primary screening)” value (shortened to “degranulation … (primary screening)”) was at least 20%; the “degranulation of scCAR-modified T cells (secondary screening)” value (from here on “degranulation … (secondary screening)”) was at least 20%; the “production of IFNγ by scCAR-modified T cells” value (from here on “production of IFNγ”) was at least 1500 pg/mL.
Turning to B2, the “degranulation … (primary screening)” value was at least 20%.
On to B3, for which the “cytotoxic activity” value is over 20%; the “degranulation … (primary screening)” value is at least 20%; the “degranulation … (secondary screening)” value is at least 20%; the “production of IFNγ” value is at least 1500 pg/mL.
With B4, the “degranulation … (primary screening)” value was at least 20%.
As for B5, the “degranulation … (primary screening)” value was at least 20%.
Consider B6, for which the “cytotoxic activity” value was over 20%; the “degranulation … (primary screening)” value is at least 20%; the “degranulation … (secondary screening)” value was at least 20%; the “production of IFNγ” value was at least 1500 pg/mL.

The values above are taken from patent US20170283497A1 (CELLECTIS, published 2017).
